What was measured:
Conditions in all cases: one partner purified
[1] = target: T1, EBOV GP (Mayinga), full-length transmembrane glycoprotein expressed on MDCK SIAT-1 cells (Ebola virus, Mayinga (NP_066246.1), UniProt Q05320); experiment: immunoprecipitation
[2] = target: RESTV GP expressed on MDCK SIAT-1 cells (Reston virus, isolate ; …, UniProt Q66799); experiment: immunostaining of cells or tissue
[3] = target: T2, SUDV GP, full-length transmembrane glycoprotein expressed on MDCK SIAT-1 cells (Sudan virus, Gulu 2000 (YP_138523.1), UniProt Q7T9D9); experiment: immunostaining of cells or tissue
T2 construct: source: MDCK SIAT-1 cell line expressing GP (generated previously), on the cell surface

[4] = target: T3, BDBV GP, full-length transmembrane glycoprotein expressed on MDCK SIAT-1 cells (Bundibugyo virus, Butalya-811250 …, UniProt B8XCN0); experiment: immunostaining of cells or tissue
[5] = target: T4, TAFV GP, full-length transmembrane glycoprotein expressed on MDCK SIAT-1 cells (Taï Forest virus (YP_003815426.1), UniProt Q66810); experiment: immunostaining of cells or tissue
[6] = target: T3, BDBV GP, full-length transmembrane …; experiment: immunoprecipitation
[7] = target: T4, TAFV GP, full-length transmembrane …; experiment: immunoprecipitation
[8] = target: T1, EBOV GP (Mayinga), full-length …; experiment: immunostaining of cells or tissue

Measured: binding result

B1: mAb 11883 (recombinant rabbit IgG) (antibody, V domains shown)
VH: QEQLVESGGGLVQPEGSLTLTCTASGFSFSSNCWRCWVRQAPGKGLEWIACVCAGRSGGTTYYASWAKGRFTISKTSSPTVTLQMTSLTAADTATYFCARAGYDDYGDASFFNLWGPGTLVTVS
VL: AVVLTQTASPVSTPVGGTVTIKCQASQNIYSNLAWYQQKPGQPPKLLIYSASTLASGVPSRFKGSGSGTEYTLTISDLECADAATYYCQRYYYLSGSADNTFGGGTEVVVK
notes: source: HEK293F, transfected, purified (Protein A)
binds: [1] | [2] | [3] | [4] | [5]

B2: mAb 11886 (recombinant rabbit IgG) (antibody, V domains shown)
VH: QSVEESGGRLVTPGTPLTLTCIVSGFSLSNYYMSWVRQVPGKGLEWIGVIGWSGTSSYASWAKGRFTISKTASTTVDLKITSPTTEDTATYFCARVLYIGGGFNYYDAFDPWGPGTLVTVS
VL: DVVMTQTPASVSEPVGGTVTIKCQASQSIGSNLAWYQQKPGQPPKLLIYAASTLASGVPSRFKGSGSGTEFTLTISDLECADAATYYCQCTYYDSSYVYNNFGGGTEVVVK
notes: as for B1
binds: [6] | [7] | [2] | [8] | [3]

Reference: paper PMC13365404 (npj Viruses, 2026)
